Assays:
[1] = target: T1, soluble Homo sapiens CD131 comprising a C-terminal 6xHis tag (human, UniProt P32927 17-438); experiment: SPR, Fab over captured shCD131
T1 construct: truncated after Ser438, C-terminal 6xHis; also called shCD131; shβc
T1 sequence: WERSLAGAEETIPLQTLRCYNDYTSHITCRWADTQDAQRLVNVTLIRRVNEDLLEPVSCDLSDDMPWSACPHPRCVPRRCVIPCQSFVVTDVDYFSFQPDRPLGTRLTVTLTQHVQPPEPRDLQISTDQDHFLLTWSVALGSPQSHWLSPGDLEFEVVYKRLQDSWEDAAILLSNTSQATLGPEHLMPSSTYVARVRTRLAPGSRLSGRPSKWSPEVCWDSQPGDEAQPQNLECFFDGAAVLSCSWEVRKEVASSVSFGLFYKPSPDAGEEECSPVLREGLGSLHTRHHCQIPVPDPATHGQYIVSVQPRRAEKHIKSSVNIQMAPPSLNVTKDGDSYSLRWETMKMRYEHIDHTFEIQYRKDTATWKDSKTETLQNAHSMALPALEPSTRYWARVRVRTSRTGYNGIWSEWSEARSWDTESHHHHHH
Description: Binding kinetics were measured using SPR with a BIAcore™ A-100 instrument (GE Healthcare Life Sciences). An anti-C-terminal Hexa-His antibody (3H3) was immobilized on spots 1, 2, 4 and 5 of each flow cell of a CM-5 sensor chip (GE Healthcare Life Sciences) using amine-coupling chemistry (116). […] As shβc is a dimer, kinetics assays were performed with shβc captured on the sensor surface, and purified Fab injected as the analyte. Avidity effects were avoided by the use of Fab rather than whole IgG.
shCD131 was captured on spots 1 and 5 of each flow cell for 2 minutes at a concentration of 0.4 μg/ml. […] For some analysis purified Fab was injected over each flow cell for 3 minutes and dissociation was monitored for a further 10 minutes. Regeneration of the surface was performed after each cycle with a 40 second injection of 25 mM glycine, pH 2.0. The analysis was performed with Fabs at several concentrations between 100 and 0.31 nM, with each concentration analyzed twice and in random order. The analysis was performed at a flow rate of 30 μl/min in HBS-EP buffer (10 mM Hepes, 150 mM NaCl, 3 mM EDTA, 0.005% Tween 20, pH 7.4) at 37° C. Responses from spots 2 and 4 of each flow cell, (in which shβc was not captured, but otherwise treated identically), were subtracted from those of spots 1 and 5 respectively to produce reference subtracted data. Reference subtracted responses from a blank injection comprising buffer alone were subtracted from the resultant sensorgrams to produce double referenced data suitable for kinetic analysis. Double-referenced sensorgrams were fitted using non-linear regression to a model describing 1:1 kinetics, including a term for mass transport limitation. The Rₘₐₓ value was fitted locally to account for slight deviations in the level of sCD131 captured, with association rate (kₐ), dissociation rate (kd) and equilibrium dissociation constant (KD) fitted globally.

[2] = target: T1, soluble Homo sapiens CD131 comprising a …; experiment: SPR, kinetics, Fab over captured shCD131
human CD131 [3] = target: T2, human CD131 (human, UniProt P32927 17-897); experiment: saturation binding of radio-iodinated Fab on human neutrophils
T2 construct: on transfected FS293F cells, TF-1 cells, human neutrophils and eosinophils, there together with the cytokine-specific alpha chains; also called hCD131; βc
T2 sequence: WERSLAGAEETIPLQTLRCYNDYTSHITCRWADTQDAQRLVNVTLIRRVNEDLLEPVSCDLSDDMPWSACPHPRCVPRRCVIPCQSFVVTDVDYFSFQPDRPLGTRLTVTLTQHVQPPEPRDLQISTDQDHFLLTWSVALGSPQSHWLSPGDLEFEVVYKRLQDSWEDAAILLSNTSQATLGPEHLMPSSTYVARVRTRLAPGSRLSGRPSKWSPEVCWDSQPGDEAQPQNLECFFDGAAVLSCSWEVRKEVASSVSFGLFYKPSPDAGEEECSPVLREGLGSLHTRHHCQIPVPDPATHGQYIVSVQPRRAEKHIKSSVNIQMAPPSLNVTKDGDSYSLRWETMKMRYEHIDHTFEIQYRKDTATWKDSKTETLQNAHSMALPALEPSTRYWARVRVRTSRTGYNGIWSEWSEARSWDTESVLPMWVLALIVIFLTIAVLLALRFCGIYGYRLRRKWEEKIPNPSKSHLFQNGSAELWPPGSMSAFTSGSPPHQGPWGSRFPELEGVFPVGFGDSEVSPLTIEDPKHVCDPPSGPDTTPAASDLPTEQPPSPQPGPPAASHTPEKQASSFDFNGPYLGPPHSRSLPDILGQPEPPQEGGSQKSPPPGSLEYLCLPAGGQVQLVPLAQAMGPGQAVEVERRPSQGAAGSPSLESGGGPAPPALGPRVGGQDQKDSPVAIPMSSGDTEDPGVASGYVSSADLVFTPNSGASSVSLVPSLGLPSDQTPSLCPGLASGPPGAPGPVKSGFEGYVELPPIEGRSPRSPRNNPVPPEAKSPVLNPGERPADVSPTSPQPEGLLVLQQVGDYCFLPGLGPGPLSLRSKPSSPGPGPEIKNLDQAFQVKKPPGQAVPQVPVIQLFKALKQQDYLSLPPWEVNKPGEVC
Description: (§1) Each point is the mean of duplicate determinations of cell-bound radio-iodinated antibody after subtraction of non-specific binding. Data from a single neutrophil binding experiment and a representative eosinophil binding experiment, n=2 is shown.
(§2) Cytokines and antibodies were radio-iodinated using Pierce Pre-Coated Iodination tubes (Thermo Scientific) according to the manufacturer's instructions. MAb binding to cells expressing hβc was determined by incubating 1-2×10⁶ cells with radio-iodinated mAb at a range of concentrations at 23° C. for 1-2 hours with gentle mixing. Cell suspensions were then centrifuged through fetal calf serum (FCS) and radioactivity associated with the cells pellets was assessed by counting in a Wizard² 2470 Automatic Gamma Counter (Perkin Elmer, Rowville, VIC, Australia). Non-specific binding was assessed for each radio-iodinated mAb in the presence of at least a 500-fold excess of unlabeled mAb. […] Competition binding assays were performed essentially as previously described (41). Briefly 1-2×10⁶ cells were incubated with mAb or cytokine competitor at a range of concentrations at 4° C. for 45 minutes with gentle mixing. […] Cell suspensions were then centrifuged through FCS and radioactivity associated with the cells pellets assessed by counting.

human CD131 [4] = target: T2, human CD131; experiment: saturation binding of radio-iodinated Fab to TF1 cells (first of three values in the cell)
Description: (§3) Cytokines and antibodies were radio-iodinated using Pierce Pre-Coated Iodination tubes (Thermo Scientific) according to the manufacturer's instructions. MAb binding to cells expressing hβc was determined by incubating 1-2×10⁶ cells with radio-iodinated mAb at a range of concentrations at 23° C. for 1-2 hours with gentle mixing. Cell suspensions were then centrifuged through fetal calf serum (FCS) and radioactivity associated with the cells pellets was assessed by counting in a Wizard² 2470 Automatic Gamma Counter (Perkin Elmer, Rowville, VIC, Australia). Non-specific binding was assessed for each radio-iodinated mAb in the presence of at least a 500-fold excess of unlabeled mAb. […] Competition binding assays were performed essentially as previously described (41). Briefly 1-2×10⁶ cells were incubated with mAb or cytokine competitor at a range of concentrations at 4° C. for 45 minutes with gentle mixing. Radio-iodinated cytokine or mAb was then added and the mixture incubated at 23° C. for a further 1-2 hours with gentle mixing. Cell suspensions were then centrifuged through FCS and radioactivity associated with the cells pellets assessed by counting.

human CD131 [5] = target: T2, human CD131; experiment: saturation binding of radio-iodinated Fab to TF1 cells (third of three values in the cell)
Description: as §3

human CD131 [6] = target: T2, human CD131; experiment: saturation binding of radio-iodinated Fab to TF1 cells (second of three values in the cell)
Description: as §3

human CD131 [7] = target: T2, human CD131; experiment: saturation binding of radio-iodinated Fab to cells; row 'Average for all cells (±SEM)' (neutrophils, TF1 cells)
human CD131 [8] = target: T2, human CD131; experiment: cell-based or functional assay
human CD131 [9] = target: T2, human CD131; experiment: cell-based or functional assay; remark: listed apart in the source
human CD131 [10] = target: T2, human CD131; experiment: saturation binding of radio-iodinated IgG on human eosinophils
Description: as §1, §2

human CD131 [11] = target: T2, human CD131; experiment: saturation binding of radio-iodinated IgG on human neutrophils
Description: as §1, §2

human CD131 [12] = target: T2, human CD131; experiment: saturation binding of radio-iodinated antibody to TF1 cells (first of three values in the cell)
Description: as §3

human CD131 [13] = target: T2, human CD131; experiment: saturation binding of radio-iodinated antibody to TF1 cells (third of three values in the cell)
Description: as §3

human CD131 [14] = target: T2, human CD131; experiment: saturation binding of radio-iodinated antibody to TF1 cells (second of three values in the cell)
Description: as §3

human CD131 [15] = target: T2, human CD131; experiment: saturation binding of radio-iodinated antibody to human eosinophils (first of two values in the cell)
Description: as §1, §2

human CD131 [16] = target: T2, human CD131; experiment: saturation binding of radio-iodinated antibody to human eosinophils (second of two values in the cell)
Description: as §1, §2

human CD131 [17] = target: T2, human CD131; experiment: saturation binding of radio-iodinated antibody to cells; row 'Average for all cells (±SEM)' (neutrophils, eosinophils, TF1 cells)
human CD131 [18] = target: T2, human CD131; experiment: competition binding on purified human eosinophils: cells pre-incubated with the antibody, then equilibrated with 340 pM radio-iodinated IL-3; cell-bound c.p.m.
Description: (§4) Each point is the mean of duplicate determinations of cell-bound radioiodinated cytokine and error bars represent the standard deviation.
as §3

human CD131 [19] = target: T2, human CD131; experiment: competition binding on purified human eosinophils: cells pre-incubated with the antibody, then equilibrated with 200 pM radio-iodinated IL-5; cell-bound c.p.m.
Description: as §4, §3

B1: 9A2-VR24.29 Fab (Fab, V domains shown)
VH: EVQLLESGGGLVQPGGSLRLSCAASGFTFPWYRVHWVRQAPGKGLEWVSSIRSSGGFPYYNYKVKGRFTISRDNSKNTLYLQMNSLRAEDTAVYYCARFYDSFFDIWGQGTMVTVSS
VL: DIQMTQSPSSVSASVGDRVTITCRASQGISSWLAWYQQKPGKAPKLLIYAASSLQSGVPSRFSGSGSGTDFTLTISSLQPEDFATYYCQQANSFPITFGQGTRLEIKR
notes: recombinant Fab; also called recombinant Fab fragment of 9A2-VR24.29
B1 showed a Kd [1] of 0.1 nM, a koff [1] of 0.000418 s⁻¹ and a kon [1] of 4e+06 M⁻¹ s⁻¹. It also gave a Kd [2] of 0.1 nM, a Kd (human CD131 [3]) of 0.384 nM and a Kd (human CD131 [4]) of 0.656 nM. The Kd (human CD131 [5]) was 0.522 nM, the Kd (human CD131 [6]) was 0.668 nM and the Kd (human CD131 [7]) was 0.569 nM.

B2: 9A2-VR24.29 (antibody, V domains shown)
VH: EVQLLESGGGLVQPGGSLRLSCAASGFTFPWYRVHWVRQAPGKGLEWVSSIRSSGGFPYYNYKVKGRFTISRDNSKNTLYLQMNSLRAEDTAVYYCARFYDSFFDIWGQGTMVTVSS
VL: DIQMTQSPSSVSASVGDRVTITCRASQGISSWLAWYQQKPGKAPKLLIYAASSLQSGVPSRFSGSGSGTDFTLTISSLQPEDFATYYCQQANSFPITFGQGTRLEIKR
notes: IgG4pK; also called 9A2-VR24.29 IgG
In the case of B2, the “IC50 IL-3, TF-1 proliferation” value (human CD131 [8]) is reported as 0.144 nM, the “IC50 IL-5, TF-1 proliferation” value (human CD131 [8]) is reported as 4.67 nM and the “fold improvement of IC50 GM-CSF over parental 9A2” value (human CD131 [8]) is reported as 1570 fold. The “fold improvement of IC50 IL-3 over parental 9A2” value (human CD131 [8]) was 41 fold, the “fold improvement of IC50 IL-5 over parental 9A2” value (human CD131 [8]) was 310 fold and the “IC50 GM-CSF, TF-1 proliferation” value (human CD131 [9]) was 0.29 nM. The Kd (human CD131 [10]) was 0.629 nM, the Kd (human CD131 [11]) was 0.246 nM and the Kd (human CD131 [12]) was 0.361 nM. For the same binder, the Kd (human CD131 [13]) was 0.393 nM, the Kd (human CD131 [14]) was 0.303 nM and the Kd (human CD131 [15]) was 0.73 nM. For the same binder, the Kd (human CD131 [16]) was 0.528 nM, the Kd (human CD131 [17]) was 0.426 nM and the “IC50 (read off the curve)” value (human CD131 [18]) was ~7 pM. For the same binder, the “IC50 (read off the curve)” value (human CD131 [19]) was ~0.3 nM.
